13 molecules from patent publication US20210277110A1 (Janssen / Centocor, published 2021) can be followed below.

Numbering of substitutions follows the chain as printed. Where two headings read alike, the source gives them in different places.

The target of assay [1] is T1, Extracellular domain of cyno PD1 (cPD1-ECD) (Macaca fascicularis (cynomolgus)).
T1 construct: Expressed with a hexahistidine tag or as Fc fusion; also called cynoPD1-ECD; cynoPD-1-ECD
T1 chain: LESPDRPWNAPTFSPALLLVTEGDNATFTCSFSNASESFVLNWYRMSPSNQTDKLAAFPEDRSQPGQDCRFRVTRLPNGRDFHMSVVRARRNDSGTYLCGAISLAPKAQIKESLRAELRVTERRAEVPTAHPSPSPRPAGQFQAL
The assay can be described thus: SPR ProteOn, cynoPD1-ECD; RANGE high replicate.
Experimental: (§1) Affinity measurements using Surface Plasmon Resonance (SPR) were performed using a ProteOn XPR36 system. A biosensor surface was prepared by coupling a mixture of anti-IgG Fc modified alginate polymer layer surface of a GLC chip using the manufacturer instructions for amine-coupling chemistry. […] The collected data were processed and fitted to a Langmuir 1:1 binding model. The result for each mAb was reported in the format of kₒₙ (On-rate), koff (Off-rate) and KD (equilibrium dissociation constant).
(§2) STDEV were calculated for 3 or more replicates generated for human and cyno proteins. If less than 3 replicates were calculated, RANGE was indicated. RANGE is defined as the low and high values for the replicates tested. For samples in the Table 10 or Table 11 without value indicated in RANGE or STDEV, only one experiment was performed.

Assay [2] deals with T2, Extracellular domain of human PD1 (huPD1-ECD) (human, UniProt Q15116 25-169, biotinylated in the ligand inhibition assay (sites not given)).
T2 construct: Expressed with a hexahistidine tag or as Fc fusion; also called biotinylated PD-1
The assay can be described thus: MSD ligand inhibition, competitor coated cynoPDL1-ECD.

The target of assay [3] is T3, Full length human PD1 (huPD1) on cells (human, UniProt Q15116 25-288).
T3 construct: on T cells of human donors in the MLR and CMV assays (functional); also called PD-1 on Jurkat cells
Put plainly: flow cytometry, PHA-stimulated Jurkat cells. In general terms: In flow cytometry, cells or beads pass a laser one at a time.

Assay [4] concerns the target T1, Extracellular domain of cyno PD1 …. Put plainly: SPR ProteOn, cynoPD1-ECD; RANGE high replicate; RANGE high replicate.
Experimental: as §1, §2
Assay [5] has the same target. Put plainly: SPR ProteOn, cynoPD1-ECD; RANGE low replicate; RANGE low replicate.
Experimental: as §1
STDEV were calculated for 3 or more replicates generated for human and cyno proteins. If less than 3 replicates were calculated, RANGE was indicated. RANGE is defined as the low and high values for the replicates tested.
Assay [6] has the same target. The assay can be described thus: SPR ProteOn, cynoPD1-ECD; RANGE low replicate.
Experimental: as §1, §2
Assay [7] addresses T2, Extracellular domain of human PD1 …. The assay can be described thus: SPR ProteOn, captured mAb, huPD1-ECD analyte.
Experimental: as §1, §2
Assay [8] deals with T1, Extracellular domain of cyno PD1 …. The assay can be described thus: SPR ProteOn, captured mAb, cynoPD1-ECD analyte.
Experimental: as §1, §2
Assay [9] shares this target. Put plainly: SPR ProteOn, captured mAb, cynoPD1-ECD analyte.
Experimental: as §1
(§3) STDEV were calculated for 3 or more replicates generated for human and cyno proteins. If less than 3 replicates were calculated, RANGE is indicated. RANGE is defined as the low and high values for the replicates tested. For samples without RANGE or STDEV, only one experiment was performed
Assay [10] has as its target T3, Full length human PD1 (huPD1) on cells. The assay can be described thus: cell-based or functional assay.
Assay [11] deals with T2, Extracellular domain of human PD1 …. The assay can be described thus: SPR ProteOn, captured mAb, huPD1-ECD analyte. The source holds these as a separate data set.
Experimental: as §1, §3
Assay [12] has as its target T4, recombinant human TIM-3-Fc fusion protein (huTIM-3-Fc) (human, UniProt Q8TDQ0 22-200).
T4 construct: range 22-200; Bought from R&D Systems (NS0-derived); Deglycosylated for HDX-MS; also called recombinant human Fc-TIM-3 chimera; TIM-3 IgG1 Fc Chimera; not shown: IgG1 Fc of the bought chimera
Put plainly: competition ELISA on coated Fc-TIM-3, competitor galectin-9. In general terms: ELISA stands for enzyme-linked immunosorbent assay.

T2 sequence (Q15116 25-169 limits assumed): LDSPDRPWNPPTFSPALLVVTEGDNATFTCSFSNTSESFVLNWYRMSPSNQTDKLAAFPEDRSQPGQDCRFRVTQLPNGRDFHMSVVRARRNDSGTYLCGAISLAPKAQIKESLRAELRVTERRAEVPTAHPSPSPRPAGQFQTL
T3 sequence (Q15116 25-288 limits assumed): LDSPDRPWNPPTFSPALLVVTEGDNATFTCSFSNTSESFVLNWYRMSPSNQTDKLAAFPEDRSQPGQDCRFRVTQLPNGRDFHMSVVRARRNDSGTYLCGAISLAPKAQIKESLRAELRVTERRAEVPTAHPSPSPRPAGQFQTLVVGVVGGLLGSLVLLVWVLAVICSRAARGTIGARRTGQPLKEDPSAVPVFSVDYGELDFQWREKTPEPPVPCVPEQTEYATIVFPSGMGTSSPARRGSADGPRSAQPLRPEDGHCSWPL

B1: PD1B175 (antibody, V domains shown)
VH: QVQLVQSGAEVKKPGSSVKVSCKASGGTFKSYVIHWVRQAPGQGLEWMGGIIPIFGTANYAQKFQGRVTITADESTSTAYMELSSLRSEDTAVYYCARGYVRATGMLDYWGQGTLVTVSS
VL: EIVLTQSPATLSLSPGERATLSCRASQSVSSYLAWYQQKPGQAPRLLIYDASNRATGIPARFSGSGSGTDFTLTISSLEPEDFAVYYCQQRSNWPLTFGQGTKVEIK
notes: Tested as IgG2sigma; also called PD1H163/PH9L3
In the case of B1, the Kd in assay [1] is 34 nM; in assay [6] it was 26 nM; in assay [7], 23 nM; in [8], 30 nM. Also, in assay [2], the “percentage ligand not blocked at 1 µg/ml” value was 6%. Besides, the “percentage ligand not blocked at 10 µg/ml” value in assay [2] worked out at 5%. The molecule also registered an EC50 in [3] of 0.09 µg/mL. Moreover, the koff came to 0.00673 s⁻¹ in [4], 0.00606 s⁻¹ in assay [5], 0.00972 s⁻¹ in assay [7] and 0.0064 s⁻¹ in assay [8]. Moreover, the kon was 230000 M⁻¹ s⁻¹ in [4], 198000 M⁻¹ s⁻¹ in assay [6], 422000 M⁻¹ s⁻¹ in assay [7] and 214000 M⁻¹ s⁻¹ in assay [8].

B2: PD1B196 (antibody, V domains shown)
VH: QVQLVQSGAEVKKPGSSVKVSCKASGGTFSSYAISWVRQAPGQGLEWMGGIIPIFDTANYAQKFQGRVTITADESTSTAYMELSSLRSEDTAVYYCARPGLAAAYDTGSLDYWGQGTLVTVSS
VL: B1 VL with S30R, S92N, N93Y
notes: also called PD1H170/PD1L148
In [9], B2 showed a dissociation constant (Kd) of 0.58 nM, an off-rate (koff) of 0.000176 s⁻¹ and a kon of 303000 M⁻¹ s⁻¹. In assay [10], the “CMV EC50, nM (IFN-γ induction)” value worked out at 0.31 nM and the “MLR EC50, nM (IFN-γ induction)” value stood at 0.14 nM. In assay [11], this molecule had an equilibrium dissociation constant (Kd) of 0.41 nM, an off-rate (koff) of 0.000366 s⁻¹ and a kon of 883000 M⁻¹ s⁻¹.

B3: PD1B200 (antibody, V domains shown)
VH: B1 VH with K30S, S31D, H35S, F55Y, Y100T, V101L, R102D, A103R, M106H
VL: B1 VL with S30D, S31N, Y49H, N93A
notes: also called PD1H164/PD1L168
In assay [9], B3 gave a Kd of 1.11 nM, a koff of 0.000422 s⁻¹ and an on-rate constant (kon) of 380000 M⁻¹ s⁻¹. Further, the “CMV EC50, nM (IFN-γ induction)” value in [10] worked out at 3.81 nM. In assay [11], the Kd turned out to be 1.17 nM, the dissociation rate constant (koff) worked out at 0.00122 s⁻¹ and the kon was 1.05e+06 M⁻¹ s⁻¹.

B4: PD1B199 (antibody, V domains shown)
VH: B1 VH with K30S, S31D, H35S, F55Y, Y100T, V101L, R102D, A103R, M106H
VL: B1 VL with Y49H, N53T, S92N, N93Y
notes: also called PD1H164/PD1L86
B4: in [9], binding was characterised by a dissociation constant (Kd) of 0.52 nM, the off-rate (koff) came out at 0.000177 s⁻¹ and the kon was 340000 M⁻¹ s⁻¹. The “MLR EC50, nM (IFN-γ induction)” value in assay [10] was 0.63 nM. In addition, in assay [11], binding was put at a Kd of 0.6 nM, the koff amounted to 0.000564 s⁻¹ and the kon is 933000 M⁻¹ s⁻¹.

B5: PD1B201 (antibody, V domains shown)
VH: B1 VH with K30S, S31D, H35S, F55Y, Y100T, V101L, R102D, A103R, M106H
VL: B1 VL with S31N, S92N, N93Y
notes: also called PD1H164/PD1L190
In assay [9], B5 yielded a Kd of 0.96 nM, a koff of 0.000293 s⁻¹ and an on-rate (kon) of 305000 M⁻¹ s⁻¹. The “CMV EC50, nM (IFN-γ induction)” value in [10] is 2.6 nM. In [11], this molecule registered a Kd of 1.12 nM, a koff of 0.000957 s⁻¹ and a kon of 858000 M⁻¹ s⁻¹.

B6: TM3B193 (antibody, V domains shown)
VH: EVQLQQSGAELVKPGASVKLSCTASGFHIKDTYLHWVKQRPEQGLEWIGRIDPTNGNIKYDPKFQGKATITSDTSSNTAYLQLSSLTSEDTAVYYCARPYYGFFDYWGQGTTLTVSS
VL: DIVMTQSHKFMSTSVGDRVSITCKASQDVNTAVAWYQQKPGQSPKLLIYSATYRYTGVPDRFTGSGSGTDFTFTISSVQAEDLAVYYCQQHYSTPYTFGSGTKLEIK
notes: Mouse-derived variable domains; also called TM3H99/TM3L52
Take B6: the “Galectin 9 Inhibition, % inhibition (maximal)” value in assay [12] amounted to 47.4%.

B7: PD1B244 (antibody, human IgG4 S228P, kappa, V domains shown)
VH: B2 VH
VL: EIVLTQSPATLSLSPGERATLSCRASQSVRSYLAWYQQKPGQAPRLLIYDASNRATGIPARFSGSGSGTDFTLTISSLEPEDFAVYYCQQRNYWPLTFGQGTKVEIKR
Regarding B7, in [10], the “CMV EC50, nM (IFN-γ induction)” value was determined as 0.03 nM and the “MLR EC50, nM (IFN-γ induction)” value is 0.08 nM.

B8: PD1B192 (antibody, human IgG2, kappa, V domains shown)
VH: B2 VH with D56G
VL: B7 VL with R30D, Y49H
notes: IgG2sigma/kappa; VH 43, VL 57; also called PD1H3/PD1L133
Regarding B8, the Kd in assay [1] came out at 18 nM; in [6], 15 nM; in assay [8] it was 16.4 nM. The “percentage ligand not blocked at 1 µg/ml” value in assay [2] was 5%. Moreover, in [2], the “percentage ligand not blocked at 10 µg/ml” value is 5%. In addition, the EC50 in assay [3] was 0.06 µg/mL. Moreover, the koff stood at 0.00522 s⁻¹ in assay [4], 0.00486 s⁻¹ in assay [6], 0.0117 s⁻¹ in [7] and 0.00504 s⁻¹ in assay [8]. The kon in [4] came out at 324000 M⁻¹ s⁻¹; in [6], 290000 M⁻¹ s⁻¹; in assay [7] it was 541000 M⁻¹ s⁻¹; in assay [8], 307000 M⁻¹ s⁻¹.

B9: PD1B184 (antibody, human IgG2, kappa, V domains shown)
VH: B2 VH with D56G
VL: B7 VL with S31N, Y49H
notes: IgG2sigma/kappa; VH 43, VL 50; also called PD1H3/PD1L128
For B9, the Kd in assay [1] stood at 14.1 nM; in assay [6], 9.5 nM; in [7], 11.4 nM; in [8] it was 11.5 nM. For the same molecule, in assay [2], the “percentage ligand not blocked at 1 µg/ml” value turned out to be 4%. The “percentage ligand not blocked at 10 µg/ml” value in [2] was 4%. The molecule further gave an EC50 in [3] of 0.08 µg/mL. Further, the koff was 0.00292 s⁻¹ in [4], 0.00255 s⁻¹ in assay [6], 0.00509 s⁻¹ in assay [7] and 0.00274 s⁻¹ in [8]. Moreover, the kon was 268000 M⁻¹ s⁻¹ in assay [4], 208000 M⁻¹ s⁻¹ in [6], 445000 M⁻¹ s⁻¹ in assay [7] and 238000 M⁻¹ s⁻¹ in [8].

B10: PD1B185 (antibody, human IgG2, kappa, V domains shown)
VH: B2 VH with D56G
VL: B7 VL with S31N, N53D, N92W, Y93N
notes: IgG2sigma/kappa; VH 43, VL 55; also called PD1H3/PD1L132
Consider B10, for which the Kd in [1] was found to be 34.1 nM; in [6] it was 27.5 nM; in [7] it was 13.1 nM; in assay [8] it was 30.5 nM. Also, the koff in [1] came out at 0.00955 s⁻¹; in assay [6], 0.00938 s⁻¹; in assay [7] it was 0.00765 s⁻¹; in [8], 0.00947 s⁻¹. For the same molecule, the “percentage ligand not blocked at 1 µg/ml” value in assay [2] amounted to 8%. Besides, the “percentage ligand not blocked at 10 µg/ml” value in assay [2] is 5%. This molecule returned an EC50 in assay [3] of 0.09 µg/mL. Also, the kon is 343000 M⁻¹ s⁻¹ in assay [4], 280000 M⁻¹ s⁻¹ in [6], 585000 M⁻¹ s⁻¹ in assay [7] and 311000 M⁻¹ s⁻¹ in assay [8].

B11: TM3B113 (antibody, V domains shown)
VH: EVQLLESGGGLVQPGGSLRLSCAASGFTFSDYWMSWVRQAPGKGLEWVSVIKYSGGSKYYADSVKGRFTISRDNSKNTLYLQMNSLRAEDTAVYYCAKELEGVFDYWGQGTLVTVSS
VL: EIVLTQSPGTLSLSPGERATLSCRASQSVSNSTLAWYQQKPGQAPRLLIYTASSRATGIPDRFSGSGSGTDFTLTISRLEPEDFAVYYCQQSYTSPWTFGQGTKVEIK
notes: also called TM3H65/TM3L12
For B11, in assay [12], the “Galectin 9 Inhibition, % inhibition (maximal)” value was found to be 75.6%.

B12: PD1B243 (antibody, human IgG4 S228P, kappa, V domains shown)
VH: EVQLVESGGGLVQPGGSLRLSCAASGFAFSRYDMSWVRQAPGKGLESVAYISGGGANTYYLDNVKGRFTISRDNAKNSLYLQMNSLRAEDTAVYYCASPYLSYFDVWGQGTLVTVSS
VL: EIVMTQSPATLSVSPGERATLSCRASQSLSDYLHWYQQKPGQAPRLLIKSASQSISGIPARFSGSGSGTEFTLTISSLQSEDFAVYYCQNGHSFPYTFGQGTKLEIKR
For the molecule B12, in assay [10], the “CMV EC50, nM (IFN-γ induction)” value worked out at 0.02 nM and the “MLR EC50, nM (IFN-γ induction)” value came out at 0.07 nM.

B13: TM3B196 (antibody, V domains shown)
VH: QVQLKESGPGLVAPSQSLSITCTISGFSLTSYGVHWVRQPPGKGLEWLVVIWSDGSTTYNSALKSRLSISKDNSKSQVFLKMNSLQTDDTAMYYCARQANYRYDSAMDYWGQGTSVTVSS
VL: DIQMTQSPASLAVSLGQRATISCKASQSVDYDGDSYMNWYQQKPGQPPKLLIYTAANLQSGIPARFSGSGSGTDFTLNIHPVEEEDAATYYCQQSNEDPFTFGSGTKLEIK
notes: Mouse-derived variable domains; also called TM3H102/TM3L64
Regarding B13, the “Galectin 9 Inhibition, % inhibition (maximal)” value in assay [12] was determined as 57%.

A word on the Kd: it is the free concentration of one partner at which half of the binding sites on the other are occupied at equilibrium, for simple one-to-one binding. A high value points to a looser complex. One may read the EC50 as the midpoint of the concentration-response curve. A high value points to a need for much substance. A word on the koff: it is the rate constant with which the complex falls apart. Higher therefore signals fast dissociation. One may read the kon as the rate constant with which the complex forms. Low readings indicate slow association, high ones fast association.
